In a protein production outcome set (Wang et al. 2014):

Test: label from the status in PepcDB records

Row | Sequence | protein production
1 | MNIQQLEYIAALDKFRHFAKAADYCNVSQPTLSTMILKLEEELGAKLFDRSRQPIEPTSIGALVVSQAKQILYDLNSITRIIEEEQ | failed
2 | MKRKLTTKFIESQKPNPSKRLDFRDELMPGLVLRISTSGTKTFCLHKRISGKMRRLTIGRFGVVSLAEARERVRKVLYEIETGRFEDRTGVEVETKPTLGDVIPDYIEKHAKVHNRDWKRKEALLAKFAALHVKRIDEIKRADVVKACDLIHKSAPVSANRALAHLKHLMGWCVERGMIDASPIAGMKPLSKERSRERVLTDDELGALWTACDAEGYPFGDCMKLLILSGQRRAEVAEMRWTELDLEKRLWTLPSQRAKNGRQHTVPITDAMIDVLRRVPRFLGSDYVFTTTGKSPVSGFGRLKDRLDKALPEGTEPWIIHDLRRTMSTNMAMLGVPQPVTEALLNHKTGVVSGVAAIYNVYSYTDEKCEALEQWNRHLTKMTQGHSDRLAGKMSAQFSA | failed
3 | MMFHEGTNVAGNAELIPIRLFGTPRCEAVRDAFFPSKGFALTAALILAPNQSLSRQYAASLLWENVEQKRALGNLRQLILRLQKLPSEDDAILLTEGNDLKAGALAQRTDLAIFLAGARAEDPMRRLNALLEFGGDLLEGLEAGQDHLYLWLLSERRRLKDLFFSSYTQLLEELTRFGRASSNDIARLAECACKIEPEREETYRAAMAAYARVGNISACEGMYQLLMEQLRQEDRSPEAETVALKRRIQSLAATIAGPVEPEEGSRRQVLAKPRVAFVRPARVDGQPVPTVIHAFVEDVANSLVRYRTFTVLSPHSTFALAHDRVDDSYAMLRADYRIISTVFDDSRMSVALIEDASGEIVWSLEAVLTERHIHAAFRLLSKQVAAALAREIERLQVEPDRNHSGEAYRQLLEGQQLLRGKCDLPLLRRARSLFRKAVDLDHSLAVARARVAQSLQLEWLMLGGNDPHLLHRAKAEADASVEIDPALGVGHWMCAVVALYQRDFDISAEKFFEAEALAPNSADLLLQHADALAHFGDAEIAWDKFQQAINLNPLAPDIYWWAGASIAFKRQDYGTAVELCGRMENDEPALRVLTASHALHGDLLAARESGSRLQENYPGMTAREISSLSPDRDPIANERFYHALRLAGIK | failed
4 | MPDFVNLWIYLSSTPLFGLTATLTVYLSAHAMYLRLGQVPLANPVLWSMVVLAAGLLAFGVPYPTYFAGAQFIHFLLGPAVVALAWPLWMRRAELRRRWARLLWAALFGGAVACASAVLLGWAVGLPRDIILSLAPKSVTAPVAMGLSETLGGIPALSAVFAALTGLVGALTGKYLFDLLGAVRGRQDWADRGFALGTVSHGIGAARAIQVNADAGAYAGLALGLQVILASLLIPVAFRLAAGLGGS | failed
5 | QDISQRKKEQEALAESESRFQELADLLPQPVFELDMKGNIIYTNSLGFQAFGYTKDDLEKGVSSLALFVPEDRETVLQNIENRLKNIPFENHEYTALRKDGTTFPILIYTARINRGGVPVGIRGIVLDITDRKQAEENLVQLNQNLELRVEERTRELEVTHQQMILQEKLASIGQLAAGIAHELNNPINFVRINFATLQEDVSDLHTLLKEYRLVTEKLEDR | failed
6 | MREHLKLFSLIFSYPDEDKLGKAIALAEGIGLTEIAQTLKQVDIEALQVEYTSLFISSHPSVPCPPYQSYFEEGSVYGKASLRAAELYSKYGLNYVYESEPPDHISVELEFLSMNPELLSDFRDWFLEFAKCVEEKSEIYATFARAFRKFLEKPSKVQS | not failed
7 | MDLGILSQLLILLFVSMLLGVLFSKFKIPDVVAYILTGVLVGNGFLKIVSPSVPISDIESVSLFFIILAIGVEANTEYIYGNVRRSIILTISSFIAPSMLGFLYLQAVAHLPIIPAFVLSMSVGVPSISIISVLLMRYDLLKLNAGRLILSSVVLTDTSAFIILSSTYESVTKVLISFGFVVLFLFAIWLFDILIRRRAGRIIEWISRRETDNNMEYILFSLVIIAGLLVSTLFEFIGITYVLGAFYAGILIHEASIGQKYHKIILNTIKRINDSFFIPLFFSIAGISMILPKISIFMIFLPALLILMGASGGLTYLVSHRLIRSLEPIKVVSILGGRGAVGVIIATIAFQSGIIDVAVYSLALIGTVIFSLVMTPLVSIGNAPSQNDDVRYS | failed
8 | MVTLLVLRMISAITRKTPVKTLSKRSKTFNETAGGEGGGGAIKLITINVHIRYSFTMITISQYFHLVDELRNCTRKVWSTYPKELIELLRDSMVTH | failed
9 | MHTLEQLRAGALTGIQALKLSENLTEVPAEVFQLADTLEILDLSGNRLHSLPQEMACLTRLRILFLSDNDFTIFPEVLKELKQLDMLGIKANNIQVIAEDAIPVSLRWLILTDNCIEALPVSIGRCTKLQKVMLAGNQLSGLPDELAACRNIELLRISANNMHTFPEVVKQLPRLAWLAYSSNPFQVNRSSFNALPVIAWENVALMEQLGAGASGIIYKARLNTGKSPEDVAVKVFKGAVTSDGLPEDEMTACMQAGRNSHLVSVLGVIGGHPEGMHGLVMELIPAEYKNLGRPPSFVTCTRDTFAAGTRFTAQQMLLILKGVAEAAKQLHDNGIMHGDLYAHNTLINEKYHSLFGDFGAATLYDKNNRDEAFFLERLDVRAFGCLADDLLQYSVCTKEDEWCLETLKRLSAGCMNEEPDKRPAFNTIVYELQLLQNTHLEHHHHHH | not failed
10 | MTGEVPGAAAQVFARAEALRDLGRPAEALGLVRQGLASDPHDVTLLVLATTLSLALEDYAQAADFATQAAAQAPGWALPLALLAQARRLADDPAGGKQAAQAALHLDPDEALAHFEVGLATALEAEQAPLWHRRRLLTEARAAASRVEALWPGQADGPALQALIDIVAGHWPQHEANIARALEREPDDSFAHNVRLLGLQARHSGETVPQLYERLRSRPDDVFARSQCVPTFPSRAGCGSIGGAGGGFFHCWW | failed
11 | MDVGMPFSGPVSFPLLVIEEELPFRIHNICSETGKFDVVLDSITNMPKYGLKIFAGVRIDMYSILGDESSGRIYTLRKGTLADFNARILAYYDKAQVINADGDTCIKMANEGYSALVGNEISIGKSFRNRMKELGLDLPSCAMASTRRIDEVIEAYEQGIDFIKNNHERAAEIISKKSGYYSEEVMKKIIGIYGHEVTKKRAELVGSRELYSRVVPELNDIEIIG | not failed
12 | MSVKTWRKIAIDIIRDFDHNIMPLFGNPKASETISISPSGDETKVVDKVAENIIISKFKDLGVNVVSEEIGRIDQGSDYTVVVDPLDGSYNFINGIPFFAVSVAIFHEKDPIYAFIYEPIVERLYEGIPGKGSYLNGEKIKVRELAEKPSISFYTKGKGTKIIDKVKRTRTLGAIALELAYLARGALDAVVDIRNYLRPTDIAAGVVIAREAGAIVKDLDGKDVEITFSATEKVNIIAANNEELLETILRSIEK | not failed
13 | HPHIQLLKSNRELLVTHIRNTQCLVDNLLKNDYFSAEDAEIVCACPTQPDKVRKILDLVQSKGEEVSEFFLYLLQQLADAYVDLRPWLLEIGFS | not failed
14 | DVRVKFEHRGEKRILQFPRPVKLEDLRSKAKIAFGQSMDLHYTNNELVIPLTTQDDLDKAVELLDRSIHMKSLKILLVINGSTQATNLEP | not failed
15 | MATGLGFFKLSFLLSLLSGGSDLLGPDAESGVAQIGKFPPSCNRIECPSYELVHSGNGYEIRRYNNTVWVSTEPIPDISLVDATRTAFFQLFAYIQGKNEYHQKIEMTAPVISQVSPSDGPFCESSFTVSFYVPKKNQPDPAPSENLHIQKWNSRYVAVRQFSGFVSDDSIGEQAAALDSSLKGTAWANAIAKSKEDGGVGSDSAYTVAQYNSPFEFSGRVNEIWLPFELDV | failed
16 | YISAVQAGDTESFAPLVERYSDMLYALLCRLLQDEEDAADLLQDTFVKAFRHIGRFDGRSSFSTWIYRIAYNEAIDHLRRRKAYVTDRVEELPDVPDEDLEPSGEDPELLQQALDSLPAADKALLLMFYSDDLSVRDIAEVTGMSESNVKVKLHRLRTKLYKMMR | failed
17 | MSLKTTTSSTPSDRITWVRISSCYLPLATPISDAKVLTGRQKPMTEIAILFAEIETAGGHQGLGFSYSKRAGGPGQFAHAREIAPALIGEDPSDIAKLWDKLCWAGASAGRSGLSTQAIGAFDVALWDLKAKRAGLSLAKLLGSYRDSVRCYNTSGGFLHTPIDQLMVNASASIERGIGGIKLKVGQPDGALDIARVTAVRKHLGDAVPLMVDANQQWDRPTAQRMCRIFEPFNLVWIEEPLDAYDHEGHAALALQFDTPIATGEMLTSAAEHGDLIRHRAADYLMPDAPRVGGITPFLKIASLAEHAGLMLAPHFAMELHVHLAAAYPREPWVEHFEWLEPLFNERIEIRDGRMLVPTRPGLGLTLSGQVKAWTREEAQVGTRPEGHHHHHH | not failed
18 | MIRVASLIKAMSDTQLQIAQGASPLTGLPGNSAIEQEIKRRLNSGNAFGMIYADLNQFKAFNDTYGFQYGDSIIKLLGKILMQDSLKADDLAFVGHVGGDDFIILTTQNVTKTLGETILLSFQEQLSAMQGAQDLSLALAGLIIYPHTAWTPATLSERIAAVKREAKKAHCNYFLLRELEHHHHHH | failed
19 | MASRGLDLWLDEHVWKRKQEIGVKGENLLLPDLWLDFLQLSPIFQRKLAAVIACVRRLRTQATVYPEEDMCMAWARFCDPSDIKVVILGQDPYHGGQANGLAFSVAYGFPVPPSLRNIYAELHRSLPEFSPPDHGCLDAWASQGVLLLNTILTVQKGKPGSHADIGWAWFTDHVISLLSERLKACVFMLWGAKAGDKASLINSKKHLVLTSQHPSPLAQNSTRKSAQQKFLGNNHFVLANNFLREKGLGEIDWRL | not failed
20 | MYKILEKKEIAMRNTWYKVYAPHVAKKVQPGQFVIVRAFPNGERIPLTPVMWDREEGWIVLIVFTRGKTTMRMAVELKEGDSLLNVAGPLGTPVPMEKFGKILAIGAYTGIVEVYPIAKAWQEIGNDVTTLHVTFEPMVILKEELEKAVTRHIVEPVPLNPNQDFLANMKNVSQRLKEKVRELLESEDWDLVFMVGPVGDQKQVFEVVKEYGVPMKVDLHPIMVDGTGMCGACRVTVGGEVKFACVDGPEFDAYQVDWDELIHRVGFYAKLEKLALEKYMEELKAKGVILEHHHHHH | failed
21 | MAKAVASQEVANMLNDWYILMKKRDISGSIEMKDDIDKAIEKMEEDHDVLLYYQMLDFRLRLLLEDISQSSTEKLEAISFKDKDPKSTDDKLNYYFYLFKGIYEDYKQNHTEALNFFRIAEKRLSVIQNEIEKAEFHYKIGVLYYNLKATWLSIHHINIASGIFQGYDGYAKRVINCKMLIGLNYIDQFKFAESEVLLKEAIEKTEKIGDQYLLPYTYYNMGFLKSKEDKHEEALKYYNKAFAIKDFETKAKYAYLLCVYENTRSLFKTNDPDQAFKWIDTGFKKAQEVNSEIFELKFKTLYTLHSDCQNKLEVIKDFIHQLEDKKAWVDLEELLMDVANYYRENKLYEEAIYFYIKTDKASKLAGRGGE | failed
22 | MSRNKGVQYLSSSEHSLKDYLPILSMAGLILIVQVLALLLSMPMEINDMQAFEDPTQVSNSIYYIVMILVFTLFVLIAIKKNMKWIISLLIYLAIVSTLYYVFFALFTLIPALAGLENIASLLLSIGLTVLLYKYPEWYVIDLLGVCIAGGVSALIGISLSIIPVVVLLILLAVYDAISVYKTKHMIAMAEGVMDLKLPILFIIPKHLNYSFITEGFKEGEKREAFFMGLGDAVMPTLLVVSANVFLENGGLSYPVLGAMLGTLVGHIFLSILVMRGKPQAGLPFLNSGAIIGFFIGVLFSGASIL | failed
23 | VALAATRAFYWIEAQSPDAATAFAQRVFDLYFSDRLDTASPEAVSRLGPEVGLEPEALLAGIADPALKETVRKIGEDAVARGIFGSPFFLVDDEPFWGWDRMEMMAEWIRTGGW | failed
24 | MKTFIIGISGVTNSGKTTLAKNLQKHLPNCSVISQDDFFKPESEIETDKNGFLQYDVLEALNMEKMMSAISCWMESARHSVVSTDQESAEEIPILIIEGFLLFNYKPLDTIWNRSYFLTIPYEECKRRRSTRVYQPPDSPGYFDGHVWPMYLKYRQEMQDITWEVVYLDGTKSEEDLFLQVYEDLIQELAKQKCLQVTA | failed
